US20250326842A1 (BEIGENE SWITZERLAND, published 2025)
Positions count from the first letter of the chain named.

Tests used:
[1] = biological target: T1, Cyno PVRIG expressed on HEK293 cells (cynomolgus monkey); assay: flow cytometry on HEK293 cells expressing cyno PVRIG, anti-hFc-647 detection [panel B]
T1 construct: also called native Cyno PVRIG
T1 chain: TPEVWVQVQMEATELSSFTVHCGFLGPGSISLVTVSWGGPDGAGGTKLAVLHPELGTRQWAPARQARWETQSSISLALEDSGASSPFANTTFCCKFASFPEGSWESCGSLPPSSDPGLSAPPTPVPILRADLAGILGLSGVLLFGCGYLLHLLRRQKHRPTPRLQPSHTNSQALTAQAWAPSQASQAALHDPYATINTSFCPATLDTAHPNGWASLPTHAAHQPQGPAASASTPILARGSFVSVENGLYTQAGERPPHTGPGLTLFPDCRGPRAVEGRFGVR
Experimental: To evaluate the binding activity of anti-PVRIG antibodies to native Cyno PVRIG on living cells. HEK293 cells were engineered to express Cyno PVRIG. HEK293 cells transfected with Cyno PVRIG were seeded in 96 well plates and were incubated with a serial dilution of anti-PVRIG antibodies. […] EC50 values for dose dependent binding to Cyno native PVRIG were determined by fitting the dose response data to the four-parameter logistic model with GraphPad Prism™.

[2] = biological target: T2, Human Serum Albumin Protein His Tag (human, UniProt P02768 25-609); assay: immunohistochemistry on protein smears, Biotin-BGA384
T2 construct: also called negative control protein smear; not shown: His tag
T2 sequence (P02768 25-609 limits assumed): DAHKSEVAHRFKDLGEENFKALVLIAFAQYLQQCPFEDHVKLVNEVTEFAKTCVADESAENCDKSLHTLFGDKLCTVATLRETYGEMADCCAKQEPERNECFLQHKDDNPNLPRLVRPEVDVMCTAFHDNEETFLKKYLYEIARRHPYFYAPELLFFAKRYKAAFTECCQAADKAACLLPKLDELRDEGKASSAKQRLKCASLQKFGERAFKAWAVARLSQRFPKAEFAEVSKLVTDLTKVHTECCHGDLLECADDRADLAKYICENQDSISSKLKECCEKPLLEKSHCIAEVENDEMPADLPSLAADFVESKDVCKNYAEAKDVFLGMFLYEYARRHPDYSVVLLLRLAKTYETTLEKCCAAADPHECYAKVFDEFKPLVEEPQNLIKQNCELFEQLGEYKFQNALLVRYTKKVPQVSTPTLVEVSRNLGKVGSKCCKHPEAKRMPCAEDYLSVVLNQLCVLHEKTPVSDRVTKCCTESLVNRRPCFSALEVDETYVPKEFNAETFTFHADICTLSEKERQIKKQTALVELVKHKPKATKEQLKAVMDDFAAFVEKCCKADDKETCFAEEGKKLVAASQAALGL
Source text: Materials and Methods: A total of 35 tissue types, each in triplicate from 3 donors, were used for the evaluation. […] 0.5 and […] Biotin-Human IgG1-Kappa (IgG1 isotype control), and 0.01 mol/L phosphate-buffered saline (reagent control).

[3] = biological target: T3, human PVRIG-mIgG2a (human, UniProt Q6DKI7 41-171, limits assumed); assay: ELISA, hPVRIG-mIgG2a coated at 0.5 µg/mL
T3 construct: also called hPVRIG-mIgG2a; hPVRIG; not shown: mouse IgG2a Fc
T3 sequence: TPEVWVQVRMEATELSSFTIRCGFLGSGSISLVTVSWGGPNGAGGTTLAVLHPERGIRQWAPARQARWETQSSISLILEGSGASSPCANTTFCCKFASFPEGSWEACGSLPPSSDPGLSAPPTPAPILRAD

[4] = biological target: T4, FcγRIIA H131 (human, UniProt P12318 36-218, limits assumed); assay: Biacore, KD from equilibrium analysis
T4 sequence (looked up): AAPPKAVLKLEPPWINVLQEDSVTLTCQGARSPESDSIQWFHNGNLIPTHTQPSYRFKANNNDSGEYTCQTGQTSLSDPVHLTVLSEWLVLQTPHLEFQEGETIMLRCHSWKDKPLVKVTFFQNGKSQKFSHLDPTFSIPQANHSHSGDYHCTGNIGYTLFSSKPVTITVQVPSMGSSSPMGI
Experimental: (§1) K¹ (M) values were calculated from the ratio of the kinetic constants as KD=koff/kₒₙ. K2 (M) values were determined by the analyte concentration at which half of the ligands are occupied at equilibrium.

[5] = biological target: FcγRIIIA F158 (human, UniProt P08637 17-208, limits assumed); assay: Biacore, KD from equilibrium analysis
FcγRIIIA F158, sequence (P08637 17-208 limits assumed): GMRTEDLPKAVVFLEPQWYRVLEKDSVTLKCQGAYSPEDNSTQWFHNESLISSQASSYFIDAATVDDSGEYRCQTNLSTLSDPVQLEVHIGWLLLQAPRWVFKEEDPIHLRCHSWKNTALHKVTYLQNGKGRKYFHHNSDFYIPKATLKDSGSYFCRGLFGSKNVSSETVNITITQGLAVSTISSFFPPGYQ
Experimental: as §1

[6] = biological target: T5, FcγRIIB (human, UniProt P31994 46-217, limits assumed); assay: Biacore, KD from equilibrium analysis
T5 sequence (looked up): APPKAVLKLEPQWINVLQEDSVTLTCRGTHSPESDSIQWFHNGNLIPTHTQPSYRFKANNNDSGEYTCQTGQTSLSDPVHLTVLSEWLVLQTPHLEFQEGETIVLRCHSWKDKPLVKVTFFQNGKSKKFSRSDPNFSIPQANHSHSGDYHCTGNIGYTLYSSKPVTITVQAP
Experimental: as §1

[7] = biological target: FcγRIIIA V158 (human, UniProt P08637 17-208, limits assumed); assay: Biacore, KD from equilibrium analysis
FcγRIIIA V158, sequence (P08637 17-208 F176V limits assumed): as the sequence (P08637 17-208 limits assumed) above, with F160V counted along it
Experimental: as §1

[8] = biological target: T6, FcγRIIA R131 (human, UniProt P12318 36-218, limits assumed); assay: Biacore, KD from equilibrium analysis
T6 sequence (looked up): T4 sequence (looked up) with H132R
Experimental: as §1

[9] = biological target: T7, hPVRIG-ECD-his (human, UniProt Q6DKI7 41-171); assay: blocking ELISA: hPVRIG-His coated, antibody mixed with PVRL2-biotin at 1 ug/mL; % inhibition of PVRL2 binding [panel B]
T7 construct: Acrobiosystems PVG-H52H4; also called hPVRIG-His; human PVRIG-His; not shown: His tag
T7 sequence: T3 sequence

[10] = biological target: T3, human PVRIG-mIgG2a; assay: cell-based competition, BGA384 against binding of hPVRIG-mIgG2a (300 ng/ml) to Farage-hPVRL2 cells, flow cytometry
Source text: The bound human PVRIG was detected with PE anti-mouse IgG2a antibody by flow cytometry.

[11] = biological target: T8, human PVRIG recombinant protein (human, UniProt Q6DKI7 41-171); assay: competition ELISA, BGA384 against biotinylated human PVRL2 (Fc-Avi-tag) on coated human PVRIG
T8 construct: also called human PVRIG protein; recombinant human antigen PVRIG
T8 sequence: T3 sequence

[12] = biological target: T7, hPVRIG-ECD-his; assay: SPR (Biacore), BGA384 captured via anti-human Fc, human PVRIG-His analyte
Experimental: SPR koff and kₒₙ were calculated using the one-to-one Langmuir binding model (BIA Evaluation Software, GE Life Sciences); KD was calculated as the ratio of koff/kₒₙ.

[13] = biological target: T9, human PVRIG expressed on cells (human, UniProt Q6DKI7 41-326); assay: flow cytometry on HuPVRIG-overexpressed Jurkat cells
T9 construct: Jurkat cells engineered to express human PVRIG; also called hPVRIG-Jurkat; native human PVRIG
T9 sequence: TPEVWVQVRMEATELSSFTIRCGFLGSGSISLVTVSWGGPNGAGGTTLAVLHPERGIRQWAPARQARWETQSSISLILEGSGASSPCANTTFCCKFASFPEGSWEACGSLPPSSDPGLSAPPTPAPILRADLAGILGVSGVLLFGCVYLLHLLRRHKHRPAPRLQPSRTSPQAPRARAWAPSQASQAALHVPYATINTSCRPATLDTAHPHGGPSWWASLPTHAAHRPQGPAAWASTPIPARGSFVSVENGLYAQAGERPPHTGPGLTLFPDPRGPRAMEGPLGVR

B1: BGA384 (antibody, human IgG1, kappa)
heavy: not shown
light: QIVLTQSPATLSLSPGERATLSCSAGSSVNYMHWFQQKPGQAPRLLIYSTSNLASGVPARFSGSGSGTDYTLTISSLEPEDFAVYYCQQRSSLPFTFGQGTKLEIKRTVAAPSVFIFPPSDEQLKSGTASVVCLLNNFYPREAKVQWKVDNALQSGNSQESVTEQDSKDSTYSLSSTLTLSKADYEKHKVYACEVTHQGLSSPVTKSFNRGEC
notes: also called BGB-A538; BGA384 WT
With B1 the “EC50 (read off the curve)” value [1] was about 0.05 µg/mL, the binding result [2] was “no binding (tested: 0.5 and 1 µg/mL)” and the EC50 [3] was 0.00879 µg/mL. For the same binder, the Kd [4] was 1480 nM, the Kd [5] was 689 nM and the Kd [6] was 9230 nM. The Kd [7] was 297 nM, the Kd [8] was 1920 nM and the “IC50 (read off the curve)” value [9] was about 0.4 µg/mL. The IC50 [10] was 0.109 µg/mL, the IC50 [11] was 0.383 µg/mL and the Kd [12] was 0.0826 nM. For the same binder, the koff [12] was 0.000344 s⁻¹, the kon [12] was 4.16e+06 M⁻¹ s⁻¹ and the EC50 [13] was 0.0269 µg/mL.
